Assay results taken from the supplement of paper PMC10567573.

B1: HESX1 (parent)
chain: HVPNPPSGISFPSVVDHPMPEERA

Variants of: B1
Assay: protein stability index of a GFP-peptide fusion (GPS, HEK-293T) (PSI 1-6); higher = more stable
Settings: c terminus: a fixed tail appended
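Also: lentivirally expressed fusions sorted by FACS into six bins by GFP to DsRed ratio, PSI derived from sequencing read proportions per bin multiplied by bin number.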

Q: With HVPNPPSGISLPSVVDHPMPEERA as the variant, how does the protein stability index read?
A: 4.93

Q: For HVPNPPSGISDPSVVDHPMPEERA, which protein stability index is on record?
A: 5.23

Q: For HVPNPPSGISGPSVVDHPMPEERA, which protein stability index is on record?
A: 4.65

Q: For HVPNPPSGISTPSVVDHPMPEERA, which protein stability index is on record?
A: 4.8

Q: With HVPNPPSGISYPSVVDHPMPEERA as the variant, how does the protein stability index read?
A: 4.22

Q: With HVPNPPSGISWPSVVDHPMPEERA as the variant, how does the protein stability index read?
A: 2.54

Q: For HVPNPPSGISVPSVVDHPMPEERA, which protein stability index is on record?
A: 4.42

Q: For HVPNPPSGISMPSVVDHPMPEERA, which protein stability index is on record?
A: 4.88

Q: With HVPNPPSGISKPSVVDHPMPEERA as the variant, how does the protein stability index read?
A: 5.12

Q: With HVPNPPSGISIPSVVDHPMPEERA as the variant, how does the protein stability index read?
A: 4.39

Q: With HVPNPPSGISNPSVVDHPMPEERA as the variant, how does the protein stability index read?
A: 4.54

Q: Which protein stability index does the source give for HVPNPPSGISQPSVVDHPMPEERA here?
A: 4.83

Q: Which protein stability index does the source give for HVPNPPSGISRPSVVDHPMPEERA here?
A: 4.37

Q: Which protein stability index does the source give for HVPNPPSGISHPSVVDHPMPEERA here?
A: 4.48

Q: Which protein stability index does the source give for HVPNPPSGISCPSVVDHPMPEERA here?
A: 4.39

Q: For HVPNPPSGISAPSVVDHPMPEERA, which protein stability index is on record?
A: 5

Q: Which protein stability index does the source give for HVPNPPSGISSPSVVDHPMPEERA here?
A: 4.86

Q: Which protein stability index does the source give for HVPNPPSGISPPSVVDHPMPEERA here?
A: 5.21

Q: With HVPNPPSGISEPSVVDHPMPEERA as the variant, how does the protein stability index read?
A: 5.4

Q: For HVPNPPSGVSFPSVVDHPMPEERA, which protein stability index is on record?
A: 2.94

Q: With HVPNPPSGLSFPSVVDHPMPEERA as the variant, how does the protein stability index read?
A: 2.14

Q: For HVPNPPSGYSFPSVVDHPMPEERA, which protein stability index is on record?
A: 2.43

Q: Which protein stability index does the source give for HVPNPPSGRSFPSVVDHPMPEERA here?
A: 2.67

Q: Which protein stability index does the source give for HVPNPPSGHSFPSVVDHPMPEERA here?
A: 3.24

Q: For HVPNPPSGESFPSVVDHPMPEERA, which protein stability index is on record?
A: 3.58

Q: For HVPNPPSGFSFPSVVDHPMPEERA, which protein stability index is on record?
A: 3.22

Q: Which protein stability index does the source give for HVPNPPSGPSFPSVVDHPMPEERA here?
A: 2.23

Q: Which protein stability index does the source give for HVPNPPSGMSFPSVVDHPMPEERA here?
A: 2.5

Q: Which protein stability index does the source give for HVPNPPSGGSFPSVVDHPMPEERA here?
A: 3.59

Q: With HVPNPPSGASFPSVVDHPMPEERA as the variant, how does the protein stability index read?
A: 3.04

Q: With HVPNPPSGTSFPSVVDHPMPEERA as the variant, how does the protein stability index read?
A: 3.8

Q: For HVPNPPSGDSFPSVVDHPMPEERA, which protein stability index is on record?
A: 4.1

Q: Which protein stability index does the source give for HVPNPPSGCSFPSVVDHPMPEERA here?
A: 2.66

Q: Which protein stability index does the source give for HVPNPPSGNSFPSVVDHPMPEERA here?
A: 3.31

Q: With HVPNPPSGSSFPSVVDHPMPEERA as the variant, how does the protein stability index read?
A: 3.33

Q: Which protein stability index does the source give for HVPNPPSGKSFPSVVDHPMPEERA here?
A: 3.53

Q: With HVPNPPSGQSFPSVVDHPMPEERA as the variant, how does the protein stability index read?
A: 3.62

Q: For HVPNPPSGWSFPSVVDHPMPEERA, which protein stability index is on record?
A: 2.37

Q: Which protein stability index does the source give for HVPNPPSGISFPFVVDHPMPEERA here?
A: 1.89

Q: With HVPNPPSGISFPEVVDHPMPEERA as the variant, how does the protein stability index read?
A: 3.65

Q: Which protein stability index does the source give for HVPNPPSGISFPLVVDHPMPEERA here?
A: 2.09

Q: Which protein stability index does the source give for HVPNPPSGISFPRVVDHPMPEERA here?
A: 2.59

Q: Which protein stability index does the source give for HVPNPPSGISFPWVVDHPMPEERA here?
A: 2.14

Q: For HVPNPPSGISFPKVVDHPMPEERA, which protein stability index is on record?
A: 1.71

Q: For HVPNPPSGISFPAVVDHPMPEERA, which protein stability index is on record?
A: 2.55

Q: For HVPNPPSGISFPDVVDHPMPEERA, which protein stability index is on record?
A: 3.94

Q: For HVPNPPSGISFPHVVDHPMPEERA, which protein stability index is on record?
A: 2.33

Q: For HVPNPPSGISFPTVVDHPMPEERA, which protein stability index is on record?
A: 2.45

Q: Which protein stability index does the source give for HVPNPPSGISFPIVVDHPMPEERA here?
A: 2.58

Q: Which protein stability index does the source give for HVPNPPSGISFPGVVDHPMPEERA here?
A: 2.81

Q: Which protein stability index does the source give for HVPNPPSGISFPPVVDHPMPEERA here?
A: 2.73

Q: Which protein stability index does the source give for HVPNPPSGISFPQVVDHPMPEERA here?
A: 2.71

Q: For HVPNPPSGISFPCVVDHPMPEERA, which protein stability index is on record?
A: 2.45

Q: With HVPNPPSGISFPNVVDHPMPEERA as the variant, how does the protein stability index read?
A: 3.04

Q: With HVPNPPSGISFPYVVDHPMPEERA as the variant, how does the protein stability index read?
A: 1.94

Q: With HVPNPPSGISFPMVVDHPMPEERA as the variant, how does the protein stability index read?
A: 2.08

Q: With HVPNPPSGISFPVVVDHPMPEERA as the variant, how does the protein stability index read?
A: 2.43

Q: Which protein stability index does the source give for HVPNPPSGISFPSVVSHPMPEERA here?
A: 2.22

Q: Which protein stability index does the source give for HVPNPPSGISFPSVVFHPMPEERA here?
A: 1.9

Q: With HVPNPPSGISFPSVVAHPMPEERA as the variant, how does the protein stability index read?
A: 2.72

Q: Which protein stability index does the source give for HVPNPPSGISFPSVVYHPMPEERA here?
A: 2.57

Q: Which protein stability index does the source give for HVPNPPSGISFPSVVNHPMPEERA here?
A: 2

Q: For HVPNPPSGISFPSVVIHPMPEERA, which protein stability index is on record?
A: 1.92

Q: Which protein stability index does the source give for HVPNPPSGISFPSVVKHPMPEERA here?
A: 2.21

Q: Which protein stability index does the source give for HVPNPPSGISFPSVVQHPMPEERA here?
A: 2.51

Q: Which protein stability index does the source give for HVPNPPSGISFPSVVRHPMPEERA here?
A: 2.51

Q: With HVPNPPSGISFPSVVPHPMPEERA as the variant, how does the protein stability index read?
A: 2.37

Q: For HVPNPPSGISFPSVVHHPMPEERA, which protein stability index is on record?
A: 2.81

Q: Which protein stability index does the source give for HVPNPPSGISFPSVVCHPMPEERA here?
A: 2.4

Q: With HVPNPPSGISFPSVVTHPMPEERA as the variant, how does the protein stability index read?
A: 2.03

Q: Which protein stability index does the source give for HVPNPPSGISFPSVVEHPMPEERA here?
A: 2.73

Q: With HVPNPPSGISFPSVVWHPMPEERA as the variant, how does the protein stability index read?
A: 1.57

Q: With HVPNPPSGISFPSVVVHPMPEERA as the variant, how does the protein stability index read?
A: 2.35

Q: With HVPNPPSGISFPSVVMHPMPEERA as the variant, how does the protein stability index read?
A: 2.19

Q: With HVPNPPSGISFPSVVGHPMPEERA as the variant, how does the protein stability index read?
A: 2.18

Q: With HVPNPPSGISFPSVVLHPMPEERA as the variant, how does the protein stability index read?
A: 2.36

Q: Which protein stability index does the source give for HVPNPPSGISFPSVVDHLMPEERA here?
A: 2.56

Q: For HVPNPPSGISFPSVVDHEMPEERA, which protein stability index is on record?
A: 2.85

Q: With HVPNPPSGISFPSVVDHIMPEERA as the variant, how does the protein stability index read?
A: 2.36

Q: Which protein stability index does the source give for HVPNPPSGISFPSVVDHAMPEERA here?
A: 2.61

Q: For HVPNPPSGISFPSVVDHDMPEERA, which protein stability index is on record?
A: 2.78

Q: For HVPNPPSGISFPSVVDHHMPEERA, which protein stability index is on record?
A: 2.49

Q: Which protein stability index does the source give for HVPNPPSGISFPSVVDHKMPEERA here?
A: 2.7

Q: Which protein stability index does the source give for HVPNPPSGISFPSVVDHFMPEERA here?
A: 2.42

Q: Which protein stability index does the source give for HVPNPPSGISFPSVVDHMMPEERA here?
A: 2.49

Q: Which protein stability index does the source give for HVPNPPSGISFPSVVDHGMPEERA here?
A: 2.43

Q: With HVPNPPSGISFPSVVDHCMPEERA as the variant, how does the protein stability index read?
A: 2.25

Q: For HVPNPPSGISFPSVVDHNMPEERA, which protein stability index is on record?
A: 2.62

Q: With HVPNPPSGISFPSVVDPPMPEERA as the variant, how does the protein stability index read?
A: 2.11

Q: With HVPNPPSGISFPSVVDTPMPEERA as the variant, how does the protein stability index read?
A: 2.94

Q: Which protein stability index does the source give for HVPNPPSGISFPSVVDKPMPEERA here?
A: 2.24

Q: For HVPNPPSGISFPSVVDSPMPEERA, which protein stability index is on record?
A: 3.01

Q: For HVPNPPSGISFPSVVDAPMPEERA, which protein stability index is on record?
A: 3.2

Q: For HVPNPPSGISFPSVVDGPMPEERA, which protein stability index is on record?
A: 2.82
